# From IntAct's records for PubMed 24165923
# B1: R-spondin-1 (Homo sapiens), Q2MKA7 (parent)
# chain: MRLGLCVVALVLSWTHLTISSRGIKGKRQRRISAEGSQACAKGCELCSEVNGCLKCSPKLFILLERNDIRQVGVCLPSCPPGYFDARNPDMNKCIKCKIEHCEACFSHNFCTKCKEGLYLHKGRCYPACPEGSSAANGTMECSSPAQCEMSEWSPWGPCSKKQQLCGFRRGSEERTRRVLHAPVGDHAACSDTKETRRCTVRRVPCPEGQKRRKGGQGRRENANRNLARKESKEAGAGSRRRKGQQQQQQQGTVGPLTSAGPA
# Variants of: B1
# Conditions: with znrf3_human ZNRF3, Q9ULT6
# Sequence of znrf3_human ZNRF3, Q9ULT6 (Q9ULT6 whole entry): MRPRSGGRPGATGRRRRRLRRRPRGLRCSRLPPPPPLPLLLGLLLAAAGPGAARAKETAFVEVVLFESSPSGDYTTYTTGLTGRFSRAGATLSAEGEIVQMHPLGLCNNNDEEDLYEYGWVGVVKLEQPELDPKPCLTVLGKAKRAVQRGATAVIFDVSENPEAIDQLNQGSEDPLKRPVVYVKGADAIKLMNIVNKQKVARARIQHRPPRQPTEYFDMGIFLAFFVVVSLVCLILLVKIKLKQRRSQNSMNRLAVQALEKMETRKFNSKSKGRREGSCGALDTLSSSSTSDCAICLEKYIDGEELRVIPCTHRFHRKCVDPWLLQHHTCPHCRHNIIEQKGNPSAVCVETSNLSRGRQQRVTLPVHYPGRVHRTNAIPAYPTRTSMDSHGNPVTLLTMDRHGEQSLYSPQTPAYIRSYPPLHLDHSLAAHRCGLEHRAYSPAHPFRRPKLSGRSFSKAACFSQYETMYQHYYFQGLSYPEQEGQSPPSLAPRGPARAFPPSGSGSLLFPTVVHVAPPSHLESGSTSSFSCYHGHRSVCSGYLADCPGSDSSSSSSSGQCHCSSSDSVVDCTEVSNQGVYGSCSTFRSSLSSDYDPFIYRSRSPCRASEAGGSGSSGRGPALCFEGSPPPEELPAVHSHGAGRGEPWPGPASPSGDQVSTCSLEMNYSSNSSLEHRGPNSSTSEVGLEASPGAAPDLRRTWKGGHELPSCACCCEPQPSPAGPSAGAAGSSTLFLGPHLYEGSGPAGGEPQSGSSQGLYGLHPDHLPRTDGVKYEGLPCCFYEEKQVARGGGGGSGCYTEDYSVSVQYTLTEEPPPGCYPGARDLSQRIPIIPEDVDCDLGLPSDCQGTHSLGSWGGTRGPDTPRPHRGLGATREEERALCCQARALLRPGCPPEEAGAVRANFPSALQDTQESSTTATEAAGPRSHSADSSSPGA
row,Variant,effect of a mutation on the interaction
1,R66A,disrupting interaction
